Data on one sequence can be found in patent publication US20220213456.

The subject of this data set is T1, OMNI-47 (Peptoniphilus obesi ph1).
T1 sequence: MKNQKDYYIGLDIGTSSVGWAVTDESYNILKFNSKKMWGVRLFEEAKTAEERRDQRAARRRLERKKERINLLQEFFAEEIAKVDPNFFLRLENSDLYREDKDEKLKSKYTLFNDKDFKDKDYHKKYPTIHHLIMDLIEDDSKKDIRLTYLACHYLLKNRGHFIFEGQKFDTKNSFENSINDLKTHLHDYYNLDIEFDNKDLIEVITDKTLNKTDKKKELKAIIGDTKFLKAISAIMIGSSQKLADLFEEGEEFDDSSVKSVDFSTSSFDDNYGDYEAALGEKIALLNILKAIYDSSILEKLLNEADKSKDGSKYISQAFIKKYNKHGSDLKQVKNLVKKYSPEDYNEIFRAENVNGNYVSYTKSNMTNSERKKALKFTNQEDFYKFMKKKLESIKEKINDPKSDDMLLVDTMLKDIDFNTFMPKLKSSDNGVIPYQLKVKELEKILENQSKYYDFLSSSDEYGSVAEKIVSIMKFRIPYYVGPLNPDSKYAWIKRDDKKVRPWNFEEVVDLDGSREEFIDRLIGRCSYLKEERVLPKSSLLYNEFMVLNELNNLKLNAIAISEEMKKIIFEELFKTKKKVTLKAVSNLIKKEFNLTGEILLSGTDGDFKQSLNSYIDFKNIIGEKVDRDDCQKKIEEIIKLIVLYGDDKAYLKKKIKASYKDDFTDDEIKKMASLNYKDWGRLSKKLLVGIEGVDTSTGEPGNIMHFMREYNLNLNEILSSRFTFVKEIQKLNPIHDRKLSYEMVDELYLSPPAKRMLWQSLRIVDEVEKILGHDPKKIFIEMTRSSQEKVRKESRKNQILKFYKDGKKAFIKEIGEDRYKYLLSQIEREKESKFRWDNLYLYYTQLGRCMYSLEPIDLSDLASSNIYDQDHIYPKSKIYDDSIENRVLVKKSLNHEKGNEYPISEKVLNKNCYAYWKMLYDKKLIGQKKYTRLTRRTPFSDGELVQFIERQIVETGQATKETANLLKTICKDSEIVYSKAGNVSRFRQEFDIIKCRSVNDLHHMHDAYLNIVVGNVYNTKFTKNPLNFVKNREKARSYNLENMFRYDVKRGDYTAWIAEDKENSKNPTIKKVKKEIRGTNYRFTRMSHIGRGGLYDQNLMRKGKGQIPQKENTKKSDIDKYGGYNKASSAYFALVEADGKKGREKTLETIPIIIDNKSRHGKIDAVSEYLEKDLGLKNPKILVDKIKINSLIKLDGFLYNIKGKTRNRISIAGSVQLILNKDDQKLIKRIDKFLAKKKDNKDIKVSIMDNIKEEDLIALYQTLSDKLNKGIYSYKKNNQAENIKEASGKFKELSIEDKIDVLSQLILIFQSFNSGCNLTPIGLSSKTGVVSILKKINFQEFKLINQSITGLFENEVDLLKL
Nature of the data set: cleavage_in_vitro. Particulars: TXTL; PAM NVYR (specific NRTA); V1, V2 tested.

Take “GGAAGAGCAGAGCCUUGGUCUCGUUUGAGAGUUAUGGAAACAUGAUGAGUUCAAAUAAAAAUUUAUUCAAAUCGCCCAUUAUGGGCCGCAGAUGUUCUGCAUUAUAUGCUUGCAAGUUGCAAGCUUUUUUU / GGAAGAGCAGAGCCTTGGTCTCNNNNNNNN / NNNNNNNNGAGACCAAGGCTCTGCTCTTCC [OMNI-47 T2 sgRNA V1 ; pbPOS T2 protospacer 8N PAM library]”: the activity (1-depletion score) turned out to be 0.98.
